We go through 1 molecule from publication PMC3069065.

This assay deals with human vitamin D nuclear receptor ligand-binding domain, hexahistidine-tagged (6xHis-VDR-LBD) (human). Kind of assay: AlphaScreen or HTRF; 100 nM 6xHis-VDR-LBD on Ni2+-chelate acceptor beads, 20 nM biotinylated TIF2-3 peptide on streptavidin donor beads; increasing concentrations of 1α,25(OH)2D3 or 1α,25(OH)2-3-epi-D3 (1% DMSO); 50 mM MOPS pH 7.4, 50 mM NaF, 50 mM CHAPS, 100 µg/ml BSA.

Where no end group is shown, it is not given here. The star is where a group is joined. Biotin = O=C1N[C@H]2[C@H](CS[C@H]2CCCCC(=O)*)N1

In turn, Biotin-QEPVSPKKKENALLRYLLDKDDTKD [human TIF2-3 biotinylated peptide (TIF2 coactivator peptide bearing the 3rd LXXLL motif)] showed an EC50 of the ligand 1α,25(OH)2-3-epi-D3 for induced recruitment of the peptide of 2.5 nM and an EC50 of the ligand 1α,25(OH)2D3 for induced recruitment of the peptide of 1.2 nM.
